Source: article PMC8321558

T1: RelA^N-terminal (purified RelA catalytic domains) (Escherichia coli)
T1 sequence (P0AG20 whole entry, looked up): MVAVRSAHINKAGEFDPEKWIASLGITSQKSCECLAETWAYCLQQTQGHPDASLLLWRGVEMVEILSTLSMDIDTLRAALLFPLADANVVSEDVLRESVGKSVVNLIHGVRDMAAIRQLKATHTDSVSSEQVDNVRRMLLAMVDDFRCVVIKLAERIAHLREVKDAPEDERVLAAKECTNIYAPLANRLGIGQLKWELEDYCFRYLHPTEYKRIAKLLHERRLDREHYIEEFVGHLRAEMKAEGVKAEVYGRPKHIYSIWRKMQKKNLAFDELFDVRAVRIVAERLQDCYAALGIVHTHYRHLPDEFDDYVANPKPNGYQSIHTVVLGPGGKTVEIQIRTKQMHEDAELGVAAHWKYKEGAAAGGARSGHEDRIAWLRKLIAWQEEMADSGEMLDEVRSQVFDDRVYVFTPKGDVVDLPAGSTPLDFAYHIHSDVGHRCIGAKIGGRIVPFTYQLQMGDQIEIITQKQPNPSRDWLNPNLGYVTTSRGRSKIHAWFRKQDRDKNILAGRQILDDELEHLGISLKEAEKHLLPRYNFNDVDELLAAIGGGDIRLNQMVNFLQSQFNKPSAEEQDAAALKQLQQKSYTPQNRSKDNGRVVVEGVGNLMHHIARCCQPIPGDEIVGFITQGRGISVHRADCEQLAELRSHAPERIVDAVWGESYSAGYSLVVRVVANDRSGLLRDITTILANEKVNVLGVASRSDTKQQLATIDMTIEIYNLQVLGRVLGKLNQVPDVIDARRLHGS


Legend:
[1] = biological target: NirD (purified, untagged) (Escherichia coli) (UniProt P0A9I8); assay: BLI; biotinylated NirD or NirD^E50K on streptavidin biosensors, RelA^N-terminal as analyte (up to 30 µM); BLItz, 25°C; 50 mM Tris-HCl pH 8.0, 500 mM NaCl, 500 mM KCl, 2 mM β-mercaptoethanol, 2% glycerol; KD from steady-state responses, one site model
[2] = biological target: T1, RelA^N-terminal (purified RelA catalytic domains) (Escherichia coli); assay: ITC; RelA^N-terminal (30 µM) in the cell, NirD or NirD^E50K (300 µM) in the syringe; 25°C; 50 mM Tris-HCl pH 8.0, 500 mM NaCl, 500 mM KCl, 2 mM β-mercaptoethanol, 2% glycerol; One Set of Sites model
[3] = biological target: T1, RelA^N-terminal (purified RelA catalytic domains) (Escherichia coli)

Kd [1] [nM]	Kd [2] [nM]	dH [2] [kcal/mol]	in vitro pppGpp synthesis by 1 µM RelA^N-terminal with 4 µM NirD: percent of GTP converted to pppGpp within 60 min (80% without NirD) [3] [%]	Molecule
550	–	–	–	RelA^N-terminal (purified RelA catalytic domains) (domain or fragment)
–	340	-3.63	30	NirD (purified, untagged) (natural protein, biotinylated with EZ-Link NHS-PEG4-Biotin for the biolayer interferometry only) MSQWKDICKIDDILPETGVCALLGDEQVAIFRPYHSDQVFAISNIDPFFESSVLSRGLIAEHQGELWVASPLKKQRFRLSDGLCMEDEQFSVKHYEARVKDGVVQLRG
